Measurements from US11390894B2, “Biological processes for the production of aryl sulfates” (CysBio ApS, priority 2014, dated 2022).

How the values were obtained:
p-coumaric acid = assay: Production of zosteric acid in Saccharomyces cerevisiae expressing SULT1A1; type: cell-based; details: strain CEN.PK102-5B, modified Delft medium, 10 mM p-coumaric acid, overnight 30° C., supernatant
Procedure: (§1) The concentration of p-courmaric acid (pHCA) and zosteric acid in the supernatant was quantified by high performance (HPLC) and compared to chemical standards. HPLC was done on a Thermo setup using a HS-F5 column and mobile phases: 5 mM ammonium formate pH 4.0 (A) and acetonitrile (B) at 1.5 mL min-1, using a gradient elution starting at 5% B. From 0.5 min after injection to 7 min, the fraction of B increased linearly from 5% to 60%, and between 9.5 min and 9.6 the fraction of B decreased back to 5%, and remaining there until 12 min. pHCA and zosteric acid were quantified by measuring absorbance at 277 nm.
The gene encoding aryl sulfotransferase SULT1A (Example 1) was cloned after a TEF1 promoter into an episomal plasmid with a 2-micron origin of replication as follows. The gene was amplified by PCR using primers CBJP633 and CBJP634. Alternatively, the gene was codon-optimized for E. coli and synthesized by GeneArt and amplified by primers CBJP635 and CBJP636. The TEF1 promoter (Jensen et al., 2014, FEMS Yeast Res 14: 238-248) was amplified by PCR using the primers PTEF1_fw and PTEF1_rv. Plasmid pCfB132 (Jensen et al., supra) was digested by restriction enzymes AsiSI and Nt.Bsml. […]

pHCA [1] = assay: Production of zosteric acid in E. coli from pHCA through heterologous expression of sulfotransferases; type: cell-based, Escherichia coli; details: culture media; M9 glucose, 0.1 mM IPTG, 0.1 mM pHCA, four days of growth
Excerpt: A range of aryl sulfotransferases including SULT1A1 Rattus norvegicus (SEQ ID NO: 1), SULT1A1 Homo sapiens (SEQ ID NO: 2), SULT1A1 Equus caballus (SEQ ID NO: 3), SULT1A1 Sus scrofa domesticus (SEQ ID NO: 4), SULT1A1 Canis lupus familiaris (SEQ ID NO: 5) and SULT1E1 Gallus gallus domesticus (SEQ ID NO: 6) were expressed in Escherichia coli. […]. The nucleotide sequence of the gene encoding SEQ ID NO: 2 was codon optimized for expression in Escherichia coli (GeneArt, Life Technologies) and amplified by PCR using the primers in Table 1. The pETDuet-1 plasmid was digested with restriction endonucleases Ncol and Sal. The PCR products were then individually cloned into the plasmid pETDuet-1 using the Gibson reaction (New England Biolabs). The resulting plasmids were transformed into BL21(DE3)pLysS (Life Technologies).
The strains were grown in M9 minimal media containing glucose as a carbon source, and 0.1 mM IPTG for induction of gene expression as well as 0.1 mM p-coumaric acid (pHCA). After four days of growth, samples were withdrawn by filtration and analyzed by HPLC.
as §1
Zosteric acid was formed with an aryl sulfotransferase heterologously expressed in a microorganism exemplified by E. coli supplied with the substrate.

pHCA [2] = assay: Percent conversion of substrate by E. coli cells expressing sulfotransferases; type: cell-based, Escherichia coli; details: 100 μM pHCA, M9 medium, overnight 37° C.
Procedure: as §1
(§2) Different sulfotransferases were examined for their substrate specificities against three substrates. We tested the sulfotransferases mentioned in example 1, as well as additional ones. The genes encoding these were cloned as described in example 1 using the primers shown in the table below from cDNA libraries of the respective organisms, except for the SULT1A1 from rat (Rattus norvegicus) codon-optimized for E. coli (described above). The resulting vectors were transformed into BL21(DE3)pLysS.
(§3) The resulting strains were grown in M9 medium containing either 100 μM pHCA, 95 μM resveratrol or 87 M kaempferol. The cultures were grown overnight at 37° C., 300 rpm. The following day the supernatants were isolated and examined by HPLC as described in example 1.

resveratrol = assay: as above; type: cell-based, Escherichia coli; details: 95 μM resveratrol, M9 medium, overnight 37° C.
Procedure: as §1, §2, §3

kaempferol = assay: as above; type: cell-based, Escherichia coli; details: 87 μM kaempferol, M9 medium, overnight 37° C.
Procedure: as §1, §2, §3

Molecule	μM ZA (averages and standard deviations of replicate experiments) (p-coumaric acid)	Zosteric acid formed (pHCA [1])	pHCA remaining (pHCA [1])	percent conversion of pHCA (pHCA [2])	percent conversion of resveratrol (resveratrol)	percent conversion of kaempferol (kaempferol)
SULT1A1 Rattus norvegicus: aryl sulfotransferase SULT1A1 from Rattus norvegicus (SEQ ID NO: 1), expressed in host cells (protein, listed as Rattus norvegicus) MEFSRPPLVHVKGIPLIKYFAETIGPLQNFTAWPDDLLISTYPKSGTTWMSEILDMIYQGGKLEKCGRAPIYARVPFLEFKCPGVPSGLETLEETPAPRLLKTHLPLSLLPQSLLDQKVKVIYIARNAKDVVVSYYNFYNMAKLHPDPGTWDSFLENFMDGEVSYGSWYQHVKEWWELRHTHPVLYLFYEDIKENPKREIKKILEFLGRSLPEETVDSIVHHTSFKKMKENCMTNYTTIPTEIMDHNVSPFMRKGTTGDWKNTFTVAQNERFDAHYAKTMTDCDFKFRCEL	37.8 ± 5.7 µM	0.10 mM	0.02 mM	93%	93%	95%
SULT1A1 Rattus norvegicus (Codon-optimized for E. coli): SULT1A1 from rat expressed from a gene codon-optimized for E. coli (protein, UniProt P17988 1-291, looked up) Sulfotransferase 1A1: MEFSRPPLVHVKGIPLIKYFAETIGPLQNFTAWPDDLLISTYPKSGTTWMSEILDMIYQGGKLEKCGRAPIYARVPFLEFKCPGVPSGLETLEETPAPRLLKTHLPLSLLPQSLLDQKVKVIYIARNAKDVVVSYYNFYNMAKLHPDPGTWDSFLENFMDGEVSYGSWYQHVKEWWELRHTHPVLYLFYEDIKENPKREIKKILEFLGRSLPEETVDSIVHHTSFKKMKENCMTNYTTIPTEIMDHNVSPFMRKGTTGDWKNTFTVAQNERFDAHYAKTMTDCDFKFRCEL	46.2 ± 3.5 µM	–	–	73%	58%	38%
